37 substances from US20240368668A1, “SUBSTRATES AND BIOMARKERS OF ADAMTS7” (The Broad Institute, Inc., priority 2021, published 2024) can be followed below.

Square brackets hold non-standard residues; d marks the D form. Ends that are not written are not given here.

The target of the assay is T1, mouse ADAMTS7 (Mus musculus, UniProt Q68SA9).
T1 construct: Full-length mouse Adamts7 1-1857 (Uniprot Q68SA9, WT or E373Q catalytic mutant); expressed in transfected cells; host or cells: Human Coronary Artery Smooth Muscle Cells (HCA-SMC, Lonza), adenovirus 50 MOI
T1 sequence (Q68SA9 221-1657): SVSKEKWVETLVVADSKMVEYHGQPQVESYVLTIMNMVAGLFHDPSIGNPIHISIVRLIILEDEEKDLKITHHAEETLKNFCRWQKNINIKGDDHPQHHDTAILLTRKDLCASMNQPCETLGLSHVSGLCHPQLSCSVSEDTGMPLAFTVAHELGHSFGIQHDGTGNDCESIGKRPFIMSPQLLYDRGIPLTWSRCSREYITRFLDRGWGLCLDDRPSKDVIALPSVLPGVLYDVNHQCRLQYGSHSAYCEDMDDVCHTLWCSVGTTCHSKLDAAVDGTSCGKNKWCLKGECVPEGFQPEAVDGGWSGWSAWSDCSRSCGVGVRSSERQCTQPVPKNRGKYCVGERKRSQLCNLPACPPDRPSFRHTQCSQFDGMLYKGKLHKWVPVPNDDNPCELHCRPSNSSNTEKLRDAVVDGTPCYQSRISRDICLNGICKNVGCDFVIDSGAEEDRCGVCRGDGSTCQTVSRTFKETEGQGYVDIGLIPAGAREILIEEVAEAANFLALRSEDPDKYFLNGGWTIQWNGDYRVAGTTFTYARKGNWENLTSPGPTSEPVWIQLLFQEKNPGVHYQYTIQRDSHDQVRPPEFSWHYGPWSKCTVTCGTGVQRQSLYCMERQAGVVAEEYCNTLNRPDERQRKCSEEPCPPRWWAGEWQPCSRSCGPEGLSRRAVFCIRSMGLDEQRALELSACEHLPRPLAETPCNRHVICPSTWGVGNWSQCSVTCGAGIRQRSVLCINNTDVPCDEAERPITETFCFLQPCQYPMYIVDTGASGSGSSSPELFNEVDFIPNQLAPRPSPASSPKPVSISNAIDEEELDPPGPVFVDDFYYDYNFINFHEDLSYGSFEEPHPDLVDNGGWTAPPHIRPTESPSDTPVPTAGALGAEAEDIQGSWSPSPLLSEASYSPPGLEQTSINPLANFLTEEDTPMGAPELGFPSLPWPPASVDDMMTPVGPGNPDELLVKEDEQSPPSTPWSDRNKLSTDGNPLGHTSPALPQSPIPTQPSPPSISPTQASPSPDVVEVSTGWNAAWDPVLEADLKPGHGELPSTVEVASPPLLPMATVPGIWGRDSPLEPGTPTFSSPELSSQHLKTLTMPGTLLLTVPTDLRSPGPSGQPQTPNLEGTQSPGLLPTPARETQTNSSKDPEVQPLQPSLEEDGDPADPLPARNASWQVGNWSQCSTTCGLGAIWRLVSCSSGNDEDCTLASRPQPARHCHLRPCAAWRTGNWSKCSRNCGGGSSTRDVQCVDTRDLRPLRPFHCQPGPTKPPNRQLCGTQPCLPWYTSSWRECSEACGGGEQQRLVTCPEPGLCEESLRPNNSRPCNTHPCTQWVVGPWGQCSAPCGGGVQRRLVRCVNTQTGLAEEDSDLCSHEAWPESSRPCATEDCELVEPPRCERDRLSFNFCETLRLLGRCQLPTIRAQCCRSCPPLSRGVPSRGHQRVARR
Description: TMT10 TAILS N-terminomics, SMC1 experiment (Ad-mADAMTS7 WT vs EQ vs Luc, technical replicates, trypsin digest). The class given is cell-based. Particulars: TAILS neo-N-terminal peptide abundance; log fold change, Ad-mADAMTS7 WT over Luc. The source says:
ADAMTS7 Expression, Cell Culture and Preparation of the Secreted Proteins—Full-length mouse Adamts7 1-1857 (Uniprot Q68SA9, WT or E373Q catalytic mutant) with a carboxyl terminal 3xFLAG tag was used to generate custom adenoviruses as previously described. Adeno-CMV-Luciferase (Ad-Luc) from Vector Biolabs was used as a negative control. Human Coronary Artery Smooth Muscle Cells (HCA-SMC) were obtained from Lonza and expanded in Lonza SmGM-2 media in 15 cm tissue culture plates. Twenty-four hours before media collection, near confluent plates were transduced with 50 MOI adenovirus and switched to Lonza Basal SM media with volumes of 20 ml per 15 cm plate. Expression of the Flag tagged ADAMTS7 was confirmed from the media using western blot and detected using the anti-Flag M2-HRP antibody (Sigma, A8592). Collected media was processed by adding protease inhibitors (1 mM EDTA and 1 mM PMSF) and clarified by 500 g×5 min spin at 4 C to pellet cell debris. Cell media supernatants were then passed through a 0.22 um filter and kept chilled. Processed media was then concentrated 50-100× using 3 kDa Centricon Plus-70 filter unit, spun at 3,500 g×60 min at 4 C. Approximately 10% of the processed, concentrated media was set aside for total secretome proteolytic analysis. The remaining 90% of the processed, concentrated media was buffer exchanged into 50 mM HEPES pH 8.0, 150 mM NaCl (2×50 ml) using the 3 kDa Centricon Plus-70 filter unit and concentrated to >2 mg/ml to serve as input for the TAILS experiment. Secretome and TAILS input samples were stored at −80° C.
For the first experiment, referred to as SMC1, 120 ml of media from 6×15 cm dishes was pooled from each condition (Luc, WT, EQ) and processed to produce three separate inputs for the TAILS experiment. Luc, WT and EQ inputs from the SMC1 experiment were each divided into triplicate 400 ug samples to generate technical replicate TAILS data. For the second experiment, referred to as SMC2, media was processed separately in triplicate for each condition (Luc1, Luc2, Luc3, WT1, WT2, WT3, EQ1, EQ2, EQ3) using 60 ml of media from 3×15 cm dishes for each process replicate. Inputs from the SMC2 experiment used process replicates of 300 ug each to generate TAILS data. The third experiment used input from cultured Human umbilical vein endothelial cells (HUVEC) from Lifeline Cell Technology grown in VascuLife Media and transduced in Lifeline Basal EC (+bFGF2 10 ng/ml). The HUVEC experiment used the same strategy as the SMC2 experiment, with 40 ml of media from 2×15 cm dishes for each process replicate and used 200 ug each to generate TAILS data. Inputs for process replicate experiments were restricted to the lowest concentration from the 9 parallel samples for SMC2 or HUVEC.
TMT10 isotopic labeling and negative selection of non-labeled peptides-Sample preparation was performed based on the TAILS protocol from the Overall lab with some modifications. From a single experiment, nine parallel protein samples in 50 mM HEPES pH 8.0, 150 mM NaCl were separately denatured with guanidinium chloride (Sigma, G4505) to reach a final concentration of 2.5M guanidinium chloride and 250 mM HEPES and incubated at 65° C. for 15 min. Reduction was achieved through addition of tris(2-carboxylethyl) phosphine (TCEP) at a final concentration of […] and incubated at 65° C. for 45 min. Alkylation reaction was performed with addition of iodoacetamide (IAA, Sigma, A3221) to a final concentration of 10 mM IAA for 15 min at room temperature in the dark. Following denaturation, reduction and alkylation steps, ten percent of each of the nine parallel protein samples was removed and combined to serve as a pooled reference. Isobaric tags were added to free amine groups using the TMT10plex Isobaric Mass Tagging Kit (ThermoFisher, 90113) with TMT channels randomly assigned to the nine samples and TMT 131 assigned to the pooled reference. […]
“HSPG2_3672 (SFLPLPTIKDAYR; listed as Homo sapiens)”: the logFC.mWT.over.Lux is listed as 1.09.

“HSPG2_3813 (SSGFIGCVR; listed as Homo sapiens)”: the logFC.mWT.over.Lux came to 0.81.

For “HSPG2_4004 (SAEPLALGR; listed as Homo sapiens)”, the logFC.mWT.over.Lux is reported as 0.88.

Take “HSPG2_4021 (LNKDGSLR; listed as Homo sapiens)”: the logFC.mWT.over.Lux was 0.70.

For “HSPG2_4075 (GCVGEVSVNGKR; listed as Homo sapiens)”, the logFC.mWT.over.Lux was found to be 0.77.

Take “HSPG2_4133 (DGFKGDLCEHEENPCQLR; listed as Homo sapiens)”: the logFC.mWT.over.Lux is 0.63.

“HTRA1_33 (LAAGCPDR; listed as Homo sapiens)”: the logFC.mWT.over.Lux stood at 2.87.

“IFI30_43 (YKTGNLYLR; listed as Homo sapiens)” returned a logFC.mWT.over.Lux of 3.19.

On to “IGFBP3_31 (SAGLGPVVR; listed as Homo sapiens)”, for which the logFC.mWT.over.Lux is recorded as 2.46.

“IGFBP3_32 (AGLGPVVR; listed as Homo sapiens)” came in with a logFC.mWT.over.Lux of 4.06.

For “IGFBP3_200 (FSSESKR; listed as Homo sapiens)”, the logFC.mWT.over.Lux worked out at 2.33.

“IGFBP7_101 (AAGGPGVSGVCVCKSR; listed as Homo sapiens)” registered a logFC.mWT.over.Lux of 3.99.

“LASP1_123 (HEEFEKSR; listed as Homo sapiens)”: the logFC.mWT.over.Lux came to 0.87.

The substance “LGALS1_53 (HGDANTIVCNSKDGGAWGTEQR; listed as Homo sapiens)” gave a logFC.mWT.over.Lux of 4.83.

For the substance “LGALS3BP_447 (FQAPSDYR; listed as Homo sapiens)”, the logFC.mWT.over.Lux is given as 4.70.

Substance “LOXL1_219 (VASAGVIYPYQPR; listed as Homo sapiens)” showed a logFC.mWT.over.Lux of 0.99.

With “LOXL2_37 (FQQPAPEYHQPQAPANVAKIQLR; listed as Homo sapiens)”, the logFC.mWT.over.Lux came to 3.37.

“LOXL2_38 ([code q]QPAPEYHQPQAPANVAKIQLR; not fully specified; listed as Homo sapiens)” showed a logFC.mWT.over.Lux of 1.37.

In the case of “LOXL2_318 (AYKPEQPLVR; listed as Homo sapiens)”, the logFC.mWT.over.Lux is reported as 0.78.

As to “LOX_58 (LSLGSQYQPQR; listed as Homo sapiens)”, the logFC.mWT.over.Lux was found to be 0.88.

As for “LOX_80 (ANASAQQPR; listed as Homo sapiens)”, the logFC.mWT.over.Lux was determined as 2.02.

In the case of “LOX_81 (NASAQQPR; listed as Homo sapiens)”, the logFC.mWT.over.Lux is given as 1.38.

Take “LOX_123 (HWFQAGYSTSR; listed as Homo sapiens)”: the logFC.mWT.over.Lux is 1.60.

On to “LOX_124 (WFQAGYSTSR; listed as Homo sapiens)”, for which the logFC.mWT.over.Lux came out at 3.70.

The substance “LOX_126 (QAGYSTSR; listed as Homo sapiens)” came in with a logFC.mWT.over.Lux of 1.61.

The substance “LTBP1_393 (LTATNFR; listed as Homo sapiens)” came in with a logFC.mWT.over.Lux of 4.03.

For “LTBP1_494 (SVQIHQVSR; listed as Homo sapiens)”, the logFC.mWT.over.Lux amounted to 2.61.

Turning to “LTBP1_540 (HQQVIPHVYPVAAKTQLGR; listed as Homo sapiens)”, the logFC.mWT.over.Lux is 2.83.

“LTBP1_546 (HVYPVAAKTQLGR; listed as Homo sapiens)” came in with a logFC.mWT.over.Lux of 3.62.

For “LTBP2_485 (SVQIHQVAQVR; listed as Homo sapiens)”, the logFC.mWT.over.Lux amounted to 1.80.

With “LTBP2_533 (SGEPPRPLPPAAPR; listed as Homo sapiens)”, the logFC.mWT.over.Lux came out at 1.34.

For “LTBP2_677 (SLGPGTCTLPLAQR; listed as Homo sapiens)”, the logFC.mWT.over.Lux stood at 0.90.

The substance “LTBP2_760 (SSGALPGPAER; listed as Homo sapiens)” yielded a logFC.mWT.over.Lux of 1.54.

“LTBP2_1023 (GKCTNLEGSFR; listed as Homo sapiens)” yielded a logFC.mWT.over.Lux of 0.74.

Substance “LTBP2_1371 (SGQKGHAPCSSVLGR; listed as Homo sapiens)” yielded a logFC.mWT.over.Lux of 1.24.

With “LTBP2_1560 (TTYTECCCQDGEAWSQQCALCPPR; listed as Homo sapiens)”, the logFC.mWT.over.Lux is given as 0.94.

In turn, “LTBP2_1584 (SSEVYAQLCNVAR; listed as Homo sapiens)” had a logFC.mWT.over.Lux of 1.40.
